In patent publication US20260201069A1, “ANTIBODIES THAT SPECIFICALLY BIND MODIFIED OLIGONUCLEOTIDES” (Hoffmann-La Roche Inc., priority 2024, published 2026):

B1: mAb 5393: anti-LNA antibody produced by clone 1.9.21 in the bivalent standard Y-shaped IgG format (antibody, V domains shown)
VH: QVQLQQSGAELVRPGTSVKVSCKASGYAFTNYLIEWIKQRPGQGLEWIGVINPGSGGTNYNEKFRVKATLTADKSSSTAYMQLSSLTSDDSAVYFCARGGGYYWGQGTLVTVSA
VL: DIVMTQAAPSVPVTPGESVSISCRSSKSLLHSNGNTYLFWFLQRPGQSPQVLIYRMSNLASGVPDRFSGSGSGTAFTLRISRVEAEDVGVYYCMQHLEYPYTFGSGTRLEIK
B2: mAb 5392: anti-LNA antibody produced by clone 1.7.15 in the bivalent standard Y-shaped IgG format (antibody, V domains shown)
VH: QVQLKQSGPSFVQPSQSLSITCTVSGFSLTTYGVHWVRQSPGKGLEWLGVIWRSGGTDYNAAFMSRLSITKDNSKSQVFFKMNSLQTDDTAIYYCTNLYYWGQGTTLTVSS
VL: DIVMTQATFSNPVTLGTSVSISCRSSKSLLRSNGITYLYWYLQKPGQSPQLLIYQMSNLASGVPDRFSSSGSGTDFTLRISRVEAEDVGVYYCGQNLELPYTFGSGTKVEIK
B3: mAb 5391: anti-LNA antibody produced by clone 1.2.8 in the bivalent standard Y-shaped IgG format (antibody, V domains shown)
VH: QIQLRESGPGLVAPSQSLSITCTVSGFSLTNYGVHWVRQPPGKGLEWLGVIWAGGSTIYNSALMSRLSISRDNSKSQVFLEMNSLQTYDTAMYYCARDRPFDGFFFSYWGQGTALTVSS
VL: DVLMTQTPLSLPVSLGDQASISCRSSQAIVHRSGNTFLEWYLQKPGQSPKLLIYKVSNRFSGVPDRFSGSGSGTDFTLKINRVEAEDLGVYYCFQGSHVPYTFGSGTKLEIK

Key:
[1] = tested on: LNA-modified ASOs and antibody-ASO conjugates; assay: SPR binding; settings: summary in words
Description: (§1) In more detail, LNA binding of the antibodies according to the current invention was characterized by surface plasmon resonance (SPR) using a BIAcore instrument with a HEPES-based running and dilution buffer at 25° C. About 100-200 resonance units (RU) of an anti-LNA antibody with an Fc-region of the human IgG1 subclass and the mutations P329G, L234A and L235A (according to Kabat EU index; human IgG Fc-PGLALA) or an anti-LNA Fab fragment with human CL and CH1 (kappa, IgG1 isotype), respectively, was captured on the surface of a Series S Sensor Chip CM3 derivatized by standard amine coupling with either a mouse anti-human IgG Fc-PGLALA antibody or a goat anti-human F(ab′2) antibody with final total surface densities of approximately 5000 RU. Different LNA-modified ASOs were passed over the derivatized SPR chip surface by injecting the respective solutions in a 1:3 dilution series up to a final concentration of 1000 nM. Association was monitored for 3 min and dissociation for 5 min at a flow rate of 30 μl/min each. Bulk refractive index differences were corrected by subtracting blank injections and by subtracting the response obtained from the reference flow cell without captured antibody. Curve fitting was performed using the 1:1 Langmuir binding model within the BIAcore evaluation software.
Further analyses of the pan anti-LNA antibody according to the invention produced by clone 1.9.21 a trivalent, bispecific format was used. This trivalent, bispecific format comprises an IgG1 Fc-region (with knobs-into-holes-cys1 mutations) to which at one of the N-termini of the Fc-region a germline Fab (DP47; SEQ ID NO: 137 and 138) has been fused and at both of the C-termini of the Fc-region each one anti-LNA Fab (fab 0699) according to the current invention produced by clone 1.9.21 has been fused (fusion 1861). […]
To assess the specificities and affinities of LNA-binding antibodies, surface plasmon resonance was done as described in WO 2020/141117 and WO 2022/175217. […] Association was monitored for 3 min. and dissociation for 5 min. at a flow rate of 30 μl/min each. […]

[2] = tested on: ASO 420; assay: SPR (BIAcore) binding kinetics and affinity; settings: analyte ASO 420, bivalent IgG format, 25° C.; for Kd: read-out: K
Description: as §1
(§2) To assess the binding specificities and affinities of the LNA-binding antibodies according to the current invention, surface plasmon resonance was used as described, e.g., in WO 2020/141117 and WO 2022/175217.
(§3) To assess the specificities and affinities of LNA-binding antibodies, surface plasmon resonance was done as described in WO 2020/141117 and WO 2022/175217. ASO binding was investigated by surface plasmon resonance (SPR) using a BIAcore T200 instrument (Cytiva). As a running and dilution buffer, HEPES buffered saline (HBS) containing 0.05% PS20 was used, the temperature was set to 25° C. For capturing anti-LNA Fabs or complete anti-LNA antibodies to a Series S Sensor Chip CM3 (Cytiva), either a mouse anti-human IgG antibody (Roche Diagnostics GmbH) or a goat anti-human F(ab′2) antibody (Jackson ImmunoResearch) was immobilized using standard amine coupling chemistry with final total surface densities of approximately 5000 resonance units (RU). The anti-LNA antibodies were captured to the surface by an injection for 30 sec., leading to response levels of approx. 100-200 RU. Different ASO molecules were injected in a 1:3 dilution series up to 1000 nM. Association was monitored for 3 min. and dissociation for 5 min. at a flow rate of 30 μl/min each. Subsequently, the surface was regenerated by injecting 10 mM NaOH (anti-human IgG antibody surface) or 10 mM Glycine pH 1.7 (anti-human IgG F(ab′2) antibody surface) for 60 sec. Bulk refractive index differences were corrected by subtracting blank injections and by subtracting the response obtained from the reference flow cell without captured antibody. Curve fitting was performed using the 1:1 Langmuir binding model within the BIAcore evaluation software.

[3] = tested on: fusion 2899 (antibody-ASO 918 conjugate); assay: SPR (BIAcore) binding kinetics and affinity; settings: analyte fusion 2899, bivalent IgG format, 25° C.
Description: as §1, §2, §3

[4] = tested on: ASO 042; assay: SPR (BIAcore) binding kinetics and affinity; settings: analyte ASO 042, bivalent IgG format, 25° C.
Description: as §1, §2, §3

[5] = tested on: ASO 297; assay: SPR (BIAcore) binding kinetics and affinity; settings: analyte ASO 297, bivalent IgG format, 25° C.
Description: as §1, §2, §3

[6] = tested on: fusion 2489 (antibody-ASO 918 conjugate); assay: SPR (BIAcore) binding kinetics and affinity; settings: analyte fusion 2489, bivalent IgG format, 25° C.
Description: as §1, §2, §3

[7] = tested on: ASO 827; assay: SPR (BIAcore) binding kinetics and affinity; settings: analyte ASO 827, bivalent IgG format, 25° C.
Description: as §1, §2, §3

| Kon ([4]; oos = out of specification) | Koff ([5]; oos = out of specification) | Molecule | binding to the tested analytes (ASOs and antibody-ASO conjugates) [1] | Kd [2] [nM] | Kd ([3]; read-out: K) [nM] | Kd ([4]; read-out: K) [nM] | Kd ([5]; read-out: K) [nM] | Kd ([6]; read-out: K) [nM] | Kd ([7]; read-out: K) [nM] | K [3] | K [4] | K [6] | K [7] | K [2] | K [5] |
| --- | --- | --- | --- | --- | --- | --- | --- | --- | --- | --- | --- | --- | --- | --- | --- |
| oos | – | B1 | binds to all of the tested ASOs and antibody-ASO conjugates with good affinity | 0.0379 | 0.169 | < 1 | 26.2 | 0.116 | 0.0414 | – | – | – | – | – | – |
| – | oos | B2 | binds to some of the ASOs, while showing no or very low binding to other ASOs | 198 | – | – | – | – | – | no/low binding | no binding | no/low binding | no binding | – | – |
| – | – | B3 | no to very low binding to all of the analytes tested | – | – | – | – | – | – | no/low binding | no binding | no/low binding | no binding | no binding | no binding |
